Reference: patent US20100261620A1 (published 2010)
Residue numbers refer to the chain shown, from its start.

B1: M464 (antibody, V domains shown)
VH: QVTLKESGPVLVKPTETLTLTCTVSGFSLSTYGMGVGWIRQPPGKALEWLAHIWWDDVKRYNPALKSRLTISKDTSKSQVVLTMTNMDPVDTATYYCARMGSDYDVWFDYWGQGTLVTVSS
VL: EIVLTQSPATLSLSPGERATLSCRASKSISKYLAWYQQKPGQAPRLLIYSGSTLQSGIPARFSGSGSGTDFTLTISSLEPEDFAVYYCQQHEWGPYTFGQGTKLEIK
notes: anti-IL-13, human IgG1
B2: M465 (antibody, V domains shown)
VH: B1 VH
VL: B1 VL with E92D, W93N, G94S
notes: anti-IL-13, human IgG1
B3: M466 (antibody, V domains shown)
VH: B1 VH
VL: B1 VL with E92D, G94S
notes: anti-IL-13, human IgG1
B4: M467 (antibody, V domains shown)
VH: B1 VH
VL: B1 VL with E92S, G94A
notes: anti-IL-13, human IgG1
B5: M468 (antibody, V domains shown)
VH: B1 VH
VL: B1 VL with E92F
notes: anti-IL-13, human IgG1
B6: M469 (antibody, V domains shown)
VH: B1 VH
VL: B1 VL with E92D, G94E
notes: anti-IL-13, human IgG1
B7: M470 (antibody, V domains shown)
VH: B1 VH
VL: B1 VL with E92L, W93D, G94S
notes: anti-IL-13, human IgG1
B8: M471 (antibody, V domains shown)
VH: B1 VH
VL: B1 VL with H91P, E92I, W93D, G94A
notes: anti-IL-13, human IgG1
B9: M472 (antibody, V domains shown)
VH: B1 VH
VL: B1 VL with H91P, E92L, W93D, G94S
notes: anti-IL-13, human IgG1
B10: M473 (antibody, V domains shown)
VH: B1 VH
VL: B1 VL with E92D, W93R, G94D
notes: anti-IL-13, human IgG1
B11: M474 (antibody, V domains shown)
VH: B1 VH
VL: B1 VL with E92D, W93L
notes: anti-IL-13, human IgG1
B12: M475 (antibody, V domains shown)
VH: B1 VH
VL: B1 VL with E92L, W93M
notes: anti-IL-13, human IgG1
B13: M476 (antibody, V domains shown)
VH: B1 VH
VL: B1 VL with E92S, W93V
notes: anti-IL-13, human IgG1
B14: M477 (antibody, V domains shown)
VH: B1 VH
VL: B1 VL with E92S, W93S
notes: anti-IL-13, human IgG1
B15: M478 (antibody, V domains shown)
VH: B1 VH
VL: B1 VL with E92N, W93H
notes: anti-IL-13, human IgG1

The binders below were run against IL-13 (Homo sapiens (Human), UniProt P35225 35-146, limits assumed) (assay: Biacore).
IL-13, sequence (P35225 35-146 limits assumed): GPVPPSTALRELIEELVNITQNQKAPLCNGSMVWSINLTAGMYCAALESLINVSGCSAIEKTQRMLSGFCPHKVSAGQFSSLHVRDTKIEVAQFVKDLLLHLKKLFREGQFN

Question: What does the source list for B1?
Answer: Kd: 0.055 nM; koff: 7.1e-05 s⁻¹; kon: 1.29e+06 M⁻¹ s⁻¹

Question: For B2, which Kd is on record?
Answer: 0.306 nM

Question: And the koff?
Answer: 0.000336 s⁻¹

Question: And the kon?
Answer: 1.1e+06 M⁻¹ s⁻¹

Question: Which Kd does the source give for B3 here?
Answer: 0.225 nM

Question: And the koff?
Answer: 0.000219 s⁻¹

Question: What about the kon of the same binder?
Answer: 970000 M⁻¹ s⁻¹

Question: How did the Kd turn out when B4 was run?
Answer: 0.452 nM

Question: And the koff?
Answer: 0.000455 s⁻¹

Question: What about the kon of the same binder?
Answer: 1e+06 M⁻¹ s⁻¹

Question: B5 was tested. Which Kd did it give?
Answer: 0.094 nM

Question: And the koff?
Answer: 0.0001 s⁻¹

Question: And the kon?
Answer: 1.06e+06 M⁻¹ s⁻¹

Question: How did the Kd turn out when B6 was run?
Answer: 0.1 nM

Question: And the koff?
Answer: 0.000143 s⁻¹

Question: What about the kon of the same binder?
Answer: 1.43e+06 M⁻¹ s⁻¹

Question: With B7 as the binder, how does the Kd read?
Answer: 0.239 nM

Question: And the koff?
Answer: 0.000311 s⁻¹

Question: What about the kon of the same binder?
Answer: 1.3e+06 M⁻¹ s⁻¹

Question: How did the Kd turn out when B8 was run?
Answer: 0.253 nM

Question: What about the koff of the same binder?
Answer: 0.000364 s⁻¹

Question: What about the kon of the same binder?
Answer: 1.44e+06 M⁻¹ s⁻¹

Question: For B9, which Kd is on record?
Answer: 0.259 nM

Question: What about the koff of the same binder?
Answer: 0.000375 s⁻¹

Question: What about the kon of the same binder?
Answer: 1.44e+06 M⁻¹ s⁻¹

Question: With B10 as the binder, how does the Kd read?
Answer: 0.312 nM

Question: And the koff?
Answer: 0.000403 s⁻¹

Question: What about the kon of the same binder?
Answer: 1.29e+06 M⁻¹ s⁻¹

Question: B11 was tested. Which Kd did it give?
Answer: 0.365 nM

Question: And the koff?
Answer: 0.000348 s⁻¹

Question: And the kon?
Answer: 950000 M⁻¹ s⁻¹

Question: How did the Kd turn out when B12 was run?
Answer: 0.187 nM

Question: And the koff?
Answer: 0.000213 s⁻¹

Question: And the kon?
Answer: 1.14e+06 M⁻¹ s⁻¹

Question: What does the source list for B13?
Answer: Kd: 0.315 nM; koff: 0.000321 s⁻¹; kon: 1.02e+06 M⁻¹ s⁻¹

Question: Which Kd does the source give for B14 here?
Answer: 0.495 nM

Question: What about the koff of the same binder?
Answer: 0.00048 s⁻¹

Question: What about the kon of the same binder?
Answer: 970000 M⁻¹ s⁻¹

Question: Which Kd does the source give for B15 here?
Answer: 0.208 nM

Question: And the koff?
Answer: 0.000247 s⁻¹

Question: What about the kon of the same binder?
Answer: 1.19e+06 M⁻¹ s⁻¹
